Test results: patent US20120052069A1

Biological target: β-Klotho overexpressed in recombinant human 293T kidney cells
Test: cell-based or functional assay

Row | Substance | EC50 (nM), ELK luciferase assay | Efficacy, ELK luciferase assay
1 | MKEDD-hFGF21-(L15)-hFc (Fc fusion) | 834 nM | 83.1%
2 | hFc-(L15)-hFGF21(1-178, L98R, P171G) (Fc fusion) | 167 nM | 63.9%
3 | hFc-(L15)-hFGF21(L98R, P171G, 1-179) (Fc fusion) | 7.8 nM | 77.4%
4 | hFc-(L15)-hFGF21(L98R, P171G, A180P) (Fc fusion) | 617 nM | 77.1%
5 | hFc-(L15)-hFGF21(L98R, P171G, GGGGG182-6) (Fc fusion) | 4310 nM | 99.7%
6 | hFc-(L15)-hFGF21(L98R, P171G, S181A) (Fc fusion) | 2.66 nM | 73.5%
7 | hFc-(L15)-hFGF21(L98R, P171G, S181G) (Fc fusion) | 3.43 nM | 77.3%
8 | hFc-(L15)-hFGF21(L98R, P171G, S181K) (Fc fusion) | 130 nM | 87.9%
9 | hFc-(L15)-hFGF21(L98R, P171G, S181L) (Fc fusion) | 3.46 nM | 72.6%
10 | hFc-(L15)-hFGF21(L98R, P171G, S181P) (Fc fusion) | 33.8 nM | 79.5%
11 | hFc-(L15)-hFGF21(L98R, P171G, S181P, P182) (Fc fusion) | 272 nM | 69.9%
12 | hFc-(L15)-hFGF21(L98R, P171G, S181T) (Fc fusion) | 3.07 nM | 77.6%
13 | hFc-(L15)-hFGF21(L98R, P171G, Y179G) (Fc fusion) | 61 nM | 82.6%
14 | hFc-(L15)-hFGF21(L98R, P171G, Y179P) (Fc fusion) | 428 nM | 44.4%
